Consider 40 sequences from the nanobody polyreactivity screen of Harvey et al. (2022).

This series can be described thus: yeast display, Sf9 membrane polyspecificity reagent, FACS + sequencing; frameworks hold sequencing errors. The method in brief:
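Using colony PCR, genes from sorted yeast display clones were amplified, then sequenced on MiSeq at 2 × 250 and filtered by CDR length. The clones had been stained with 10% biotinylated, detergent-solubilized Sf9 membrane reagent for 1 hour at 4 °C and sorted by FACS into low and high (top ~1%) gates on anti-HA and streptavidin fluorescence. Polyreactivity labels come from the gate of origin.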
For “QLQLVESGGGLVQAGGRLRLSSAASGRTFRYYAMGWYRQAAGKERELVASITSGGRTYYADSVKGRFTISRDNAKNTVYLQMNSLKPEDTAVYYCAADRFGIGGKRGNDYWGQGTQVTVSS”, the “polyreactivity (PSR sort gate)” value is listed as “high polyreactivity”. With “QVQLEESGGGLVQAGGSLRLSCAASGSIFIANAMGWYRQAPGKERELVAVINWGDGSTYADSVKGRFTISRDNAKNTVYLQMNSLKPEDTAVYYCNAPDEVNDVRYDYWGQGTQVTVSS” the entry was “low polyreactivity”; with “QVQLVQSGGCLVQAGGSLRLSCAASGSTFRYKAMGWYRQAPGKERELVATITGSGGSTYYADSVKGRFTISRDNAKNTVYLQMNSLKAEDTAVYYCNARYKRAAWRYDYWGQGTQVSVSS”, “high polyreactivity”.

Consider “QVQLVESVVGLVQAVGTLRLSSAATGSTIYRNAMGWYRQPPGKEREFVAAISFRGGGTYADSVKGRFTISRDNAKNTVYLQMNSLKPEDTAVYYCAADHLSYRRRYEYWGQGTQVTVSS”, for which the “polyreactivity (PSR sort gate)” value is “low polyreactivity”. Turning to “QVQLVESGGGLVQAGCSLRLSCAASGSIIIGNAMGWYRKSPGKERELVAVINGSDGTTYYADSVKGRFTNSRDNAKNTVYLQMNSLKPEDTAVYYCNADFIDPSVYDYNYWGQGTQVTVSS”, the “polyreactivity (PSR sort gate)” value is “low polyreactivity”. Consider “QVQLVESGGGLVQAGGSLRLSCAASGRIIDDNAMGWYRQAPGKERELVASITVSTGSTYYADSVKGRFTISRDNAKNTVYLQMNSLKPEDTAVYYCDAPYITPYGTYVFSSDYWGQGTQVTVSS”, for which the “polyreactivity (PSR sort gate)” value is listed as “low polyreactivity”. The same measure for “QVHLVESGGGLVQAGGSLRLSCAASGFTLRHNTIGGYRQSPGKERELVAAISIGGRTYYADSVKARFTISRDNAKNTGYLQMNSLKPEDTAVYYCGKLDRGQSPRYDFWGQGTQVSVSS”: “high polyreactivity”; for “QVQLVESGGRLVQAGGSLRLSCSASGRICAYYAKGWYRQAPGKDRELVADSTYADSVKGRFTISRDNAKNTVYLQMKSLKPEYTAVYYCAVDYHFFLSRTYLPGSKYDFWGLGTQVTVSS”: “low polyreactivity”; for “QVQLVESGGGLVQAGGSLRLSCAASGRIFLYNDMGWYRQAPGKERELVATITWNVTSTYYADSVKGRFTISRDNAKYTVYLQLNSLKPEDTAVYYCARGDHVGSAGYDYWGQGTQVTVSS”: “low polyreactivity”. With “QVQLVESCGGLVQAGGSLRLSCAASGFIFDWYAMGWYRQAPGKVRELVAAITTDGGGTYYADSVKGRFTISRDNAKNNVYLQMNSLKPEDTAVYDCAADGVSTSPQYDYWGQGTQVTVSS” the entry was “high polyreactivity”; with “QVQLVESGGGLVQAGGSLRLSCAASGRTFSNYAMGWYRQAPGKERELVAAISSGGSTNYADSVKGRFTISRDNAKNTVYLLMNSLKPEDTAVYYCAARQRAYYGPGFDYWGQGTQVTVSS”, “low polyreactivity”; with “QVQLVESGGRLVQAGGSLLLSCAASGIIFYDYAMGWYRRAPGKERQLVAAITSGGSTNYADSVKGRFTISRDNAKNTVYLQMNSLKPEDTAVYYCAATYWSWISLRWYEYYYWGEGTQVTVSS”, “low polyreactivity”.

As for “QVQLVESGGGLVQAGGSLRLSCADSGYIFYPYTMGWYRQAPGKEMELDAAITWSGSTYYADSVKGRFTISRDNAKNTVYLQMNSLKPEDTAVYYCAADFDSYDSYTYLQYDYWGQGTQVTVSS”, the “polyreactivity (PSR sort gate)” value was “low polyreactivity”.

On to “QAELVESGGGLVQAGGSLRLSCAASGLTFRAYAMGWYRQAPGKERELVAAISWNGGSTYYADSVKGRFTISRDNAKNTVYLQMNSLKPEDTAVYYCNAYDYQYFYGYEYDYWGQGTQVTVSS”, for which the “polyreactivity (PSR sort gate)” value is reported as “high polyreactivity”. The same measure for “QVQLVESGGGLVQAGGSLRLSCAASGSIFHAYAMGWYRQAPGKERELVAAINRGGRTNYADSVKGRFTISRDNAKNTVYLQMNSLKPEDTAVYYCAASYRWVTDKTHYYWGQGTQVTVSS”: “low polyreactivity”. With “QVQLVESGGGLVQAGGSLRLSCAASGFIFSSYAMGWYRQAPGKERELVAAITSGGSTYYADSVKGRFTISRDNAKNTVYLQMNSLKPEDTAVYYCAADHWDGQYWFDYWGQGTQVTVSS” the entry was “low polyreactivity”; with “QVQLVESGGGLVQAGGTLRLSCAPSARTFDRNAMGWYRQAPGKERELVASISWVGTSTYYADSVKGRFTISRDNAKNTVYLQMNSLKPDDSAVYYCAARRVKYISLDYWGQGTQVTVSS”, “low polyreactivity”. With “QVQLVESGGGLVQAGGSLRLSCAASGFTFPGYTMGRYRQAPGKERELVAAITWSGGRTYYADSVKGRFTITRDNAKNTVYLQMNSLKPEDTEVYYCAANFGAFYGNRDYWGQGTQVTVSS” the entry was “high polyreactivity”; with “QVQLVESGGGLVQAGGSLRLSCAASGRTFAFYAMGWYRQAPGKERELVASIRGGGGTNYADSVKGRFTISRDNAKNTVYLQMNSLKTEDTAVYYCAARGYGYRGYYYWGQGTQVTVSS”, “high polyreactivity”; with “QVQLVESGGGLVQARGSLRLSCAASGRIFKRYTMGWYTQAPGKKRELVATISSGDSTTYADSVKGRFTISRDNAKNTVYLQMNSLKQEDTAVYYCAAVWPGGSRRGDVVALNYWGQGTQVTVSS”, “high polyreactivity”.

With “QVQLVESGGGLVQAGGSLRLSCAATGLFDVYAMGGYRQAPRKERELVAAISSDGSTYYADSVKGRFTISRDNAKNTVYLQMNSLKPEDTAVYYCNADTSGSPYLQGYVGYGYWGQGTQVTVSS”, the “polyreactivity (PSR sort gate)” value is given as “low polyreactivity”. Regarding “QVQLVESGGGLVQAGGSLRLSCAASGFTFLFNAMGWYRQAPGKERELVADITWSGGSTYYADSVKGRFTISRDNAKNTVYLQMNSLKPEDTAVYYCAASDDWSTPIYYYSVFDYDYWGQGTQVTVSS”, the “polyreactivity (PSR sort gate)” value was “high polyreactivity”.

Turning to “QVQIVDSGGGLVQAGGSLRLSCAASGRIIRGYAMGWYRQAPGKERELVAAITFSGGSPYYADSVKGRFTISRDNAKNTVYLHMNSLKPEDTAVYYCAAAYGGSSYEYNYWGQGTQVTVSS”, the “polyreactivity (PSR sort gate)” value is “low polyreactivity”.

Consider “QVQLVESGGGLVQAGGSLRLSCAASGSTVENNVMGWYRQAPGQERELVATITWGDGSTSYADSVKGRFTISRDNAKNTVYLKMNSLKTEVTAVYYCDAVDRIGYGKNQDHDYWGQGTQVTVSS”, for which the “polyreactivity (PSR sort gate)” value is “low polyreactivity”. The same measure for “QVQLVESGGGVVQAGGSLRLSCAASGITYGRNTMGWYIHAPGKERELVAAIDSGGNTYADSVKGRFTISRDNAKNTVYLQMNSLKPEDTAVYYGAATFIQVVVNVQLYDYDYWGQGTQVNVSS”: “low polyreactivity”; for “QVQLVESGGGLVQAGGSLRLSCAASGSIFSIYAMGWYRQAPRKERELVAAISSSGRTYYADSVKGRFTISRDNAKNTVYLQMNSQKPVDTAVYYCNRVREGKHYYYWGQGTQVTVSS”: “high polyreactivity”. With “QVQLVESGGGLVQAGGSLRLSCAASGSIFPGYAMGWYRQAPGKERELVATITWSGGSTYYADSVKGRFTISRDNAMNTVYLQMNSLKPEDTAVYYCNADSNWYYQLNYYGLYDYWGQGTQVTVSS” the entry was “low polyreactivity”; with “QVQLVESGGGLVQAGGSLRLSCAASGFIFKRYAMGWYRQAPGKVRELGAAITGSGGSTYYADSVKGRFTISRDNAKNTVYLQMNSLKPEDTAVYYCARGNGGSLDYWGQGTQVTVSS”, “high polyreactivity”; with “QVQLVESGGGLVQAGGSLRLTCSASGIILYYYAMGWNRQAPGKERELVAAISSSGGSTYYADSVKGRFTFSRDNAKNTVYLQMKSLKPEDTAVYYCAAWVVPLRYAYGRLTYNYWGQGTQVTVSS”, “high polyreactivity”. The same measure for “QVQLVESGGGLVQAGGSHRLICAASGFNFYIYAMGWYRQAPGKERELVAAISWNGGSTYYADSVKGRFTISRDIAKNTVYLQMNSLKPEDTAVYYCAARHYYFYYHGYVKYDYWGQGTQVTVSS”: “high polyreactivity”.

For “QVQLVESGGGLVQAGGSLRLSCAASGSTFRNYAMGWSRQAPGKERELVAAISGSGGRTKYADSVKGRFTISRDNAKNTVYLQMNSLKPEDTAVYYWNARFPDWALSEISHSTTYGLWGQGTLVTVSS”, the “polyreactivity (PSR sort gate)” value is recorded as “low polyreactivity”. With “QVQLVESGGGLVQAGGSLRLSCAASGFIFVQYAMGWYRQAPGKERELVAAISKGGGSTYYADSVKGRFTISRDNAKNTVYLQMNSLKPEDTAVYDCNADKVTRVTYWDDSWGQGTQVTVSS” the entry was “high polyreactivity”; with “QVQIVESGGGLVQAGGSLRVSCAPSGRTFLPYGMGWYRQAPGKEWELVASITSGGSTNYADSVKGRFTISRDNAQNTVYLQMNSLKPEDTAVYYCNKQTIPEWPWVKYSNGYDHWGHGTQVTVSS”, “low polyreactivity”; with “QVQLEESGGGLVQAGCSLRLSCADSGITFGGNAMGWYRQAPGKERDLVAAIDEGGGSTYYADTVKGRFTLSRDNAKNTVYLQMHSLKPEPTAVDYCAADFGYYGYYYWGQGTQVTVST”, “low polyreactivity”. The same measure for “QVQLVESGGGLVQAGGSLRLSCAASGSTFIGYTMGWYRQAPGKERELVAAIRYSSGRTYYADSVKGRFTISRDNAKNTVYLQMNSLKPEDTAVYYCAAANPRDHRGANDYWGQGTQVTVSS”: “high polyreactivity”; for “QVQLVESGGGLVQAGGSLRLSCAASGSTRYNAKGWYRQAPGNERELVASIRGNAGSTYYADSVKGRFTISRDNAKNTVYLQMNSLKPEDTAVYYCNARYWYRYGGYKPVGGYYWGQGTQVTVSS”: “high polyreactivity”; for “QVQLVESGGGLVQAGGSLRLSCAASGRILYRNAMGWYRQAPGKERELVAAITTRGTSTYYADSVKGRFTISRDNAKNTVYLQMNSLKPEDTAVYYCAADSWFSYRGPLYYWGQGTQVTVSS”: “high polyreactivity”.

Consider “QVQLVETGGGLVQAGGSLRLSCEASGTIFTYAMGWYRQAPRKERELVAVISWSGASTYYADSVKGRLTISRDNAKNSVYLQMNSLKTEDTAVYYCAVYRYYKLVHLYGFDYWGQGTQVTVSS”, for which the “polyreactivity (PSR sort gate)” value is “high polyreactivity”. With “QVQLVESGGGLVQAGGSLRISCAPSGIIFTDYAMGWYRQAPGKERELVAAISSGGGSTYYADSVKGRFTISRDNAKNTVYLQMNSLKPEDTAVYYCAAEGYLISGAGDYLYDYYWGQGTQVTVSS” the entry was “high polyreactivity”; with “QVQLVESGGGLVQAGGSLRLSCAASGSIFYIYAMGWYRKAPGKERELVASIDSGDSTNYADSVKGRFTISRDNAKNTVYLQMNSLKPEDTAVYYCNADTFSELTYYLYIGMDYWGQGTQVTVSS”, “low polyreactivity”.
